Tested on: CC(=O)SCCNC(=O)CCNC(=O)[C@H](O)C(C)(C)COP(=O)(O)OP(=O)(O)OC[C@H]1O[C@@H](n2cnc3c(N)ncnc32)[C@H](O)[C@@H]1OP(=O)(O)O
Assay: discontinuous colorimetric DTNB assay
Format: biochemical, Pseudomonas aeruginosa
Conditions: 5 mM polymyxin B constant, 50 mM Tris-HCl pH 8.0, 37 °C

Substance | Km | kcat | kcat/Km
PA3944 (tagged) (Pseudomonas aeruginosa PAO1) | 118 ± 28 µM | 0.602 s⁻¹ | 5100 M⁻¹ s⁻¹
PA3944 (cleaved) (Pseudomonas aeruginosa PAO1) | 137 ± 20 µM | 0.61 s⁻¹ | 4450 M⁻¹ s⁻¹

Reference: PMC6474815
